What was measured:
[1] = test system: HeLa Kyoto; test: solubility in G1/S (NP-40 vs SDS abundance) (log2 ratio); higher = more soluble; settings: cell cycle stage: G1/S
[2] = test system: HeLa Kyoto; test: melting temperature (median over replicates), in situ; higher = more thermally stable
[3] = test system: HeLa Kyoto; test: solubility change mitosis vs G1/S (difference of NP-40 vs SDS log2 ratios) (log2 ratio difference); higher = more soluble in mitosis
[4] = test system: HeLa Kyoto; test: thermal stability score vs G1/S (z-score of summed log2 fold changes over temperatures); higher = more thermally stable than in G1/S
[5] = cell cycle stage: early G1 (4.5 h after nocodazole release)
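For melting temperature (median over replicates), in situ in this document: HeLa Kyoto cells synchronized by double thymidine or nocodazole block, proteins quantified by TMT10plex mass spectrometry, three independent biological replicates.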
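For solubility change mitosis vs G1/S (difference of NP-40 vs SDS log2 ratios) in this document: synchronized HeLa Kyoto cells (double thymidine block for G1/S, nocodazole release for mitosis), protein amounts in NP-40 versus SDS lysates quantified by mass spectrometry, three biological replicates.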
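For solubility in G1/S (NP-40 vs SDS abundance) in this document: HeLa Kyoto cells arrested at G1/S by double thymidine block, proteins quantified by TMT10plex mass spectrometry in mild NP-40 versus SDS extracts, three biological replicates.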
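For thermal stability score vs G1/S (z-score of summed log2 fold changes over temperatures) in this document: synchronized HeLa Kyoto cells, proteins quantified by TMT10plex mass spectrometry, three biological replicates, mitosis taken 0.5 h after nocodazole release, G1/S directly after double thymidine block.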

Row | Sequence | solubility in G1/S (log2) [1] | melting temperature ([2]; cell cycle stage: G1/S) [°C] | melting temperature ([2]; cell cycle stage: mitosis) [°C] | solubility change mitosis (log2) [3] | thermal stability score [4, 5] | thermal stability score ([4]; cell cycle stage: mitosis)
1 | MFRAAAPGQLRRAASLLRFQSTLVIAEHANDSLAPITLNTITAATRLGGEVSCLVAGTKCDKVAQDLCKVAGIAKVLVAQHDVYKGLLPEELTPLILATQKQFNYTHICAGASAFGKNLLPRVAAKLEVAPISDIIAIKSPDTFVRTIYAGNALCTVKCDEKVKVFSVRGTSFDAAATSGGSASSEKASSTSPVEISEWLDQKLTKSDRPELTGAKVVVSGGRGLKSGENFKLLYDLADQLHAAVGASRAAVDAGFVPNDMQVGQTGKIVAPELYIAVGISGAIQHLAGMKDSKTIVAINKDPEAPIFQVADYGIVADLFKVVPEMTEILKKK [ETFA] | 0.455 | 54.1 | 53.6 | -0.02 | -3.45 | -1.76
2 | MFRRKLTALDYHNPAGFNCKDETEFRNFIVWLEDQKIRHYKIEDRGNLRNIHSSDWPKFFEKYLRDVNCPFKIQDRQEAIDWLLGLAVRLEYGDNAEKYKDLVPDNSKTADNATKNAEPLINLDVNNPDFKAGVMALANLLQIQRHDDYLVMLKAIRILVQERLTQDAVAKANQTKEGLPVALDKHILGFDTGDAVLNEAAQILRLLHIEELRELQTKINEAIVAVQAIIADPKTDHRLGKVGR [C14ORF166] | 0.0935 | 50.1 | 51.3 | 0.329 | -1.08 | -0.0878
3 | MFRYESLEDCPLDEDEDAFQGLGEEDEEIDQFNDDTFGSGAVDDDWQEAHERLAELEEKLPVAVNEQTGNGERDEMDLLGDHEENLAERLSKMVIENELEDPAIMRAVQTRPVLQPQPGSLNSSIWDGSEVLRRIRGPLLAQEMPTVSVLEYALPQRPPQGPEDDRDLSERALPRRSTSPIIGSPPVRAVPIGTPPKQMAVPSFTQQILCPKPVHVRPPMPPRYPAPYGERMSPNQLCSVPNSSLLGHPFPPSVPPVLSPLQRAQLLGGAQLQPGRMSPSQFARVPGFVGSPLAAMNPKLLQGRVGQMLPPAPGFRAFFSAPPSATPPPQQHPPGPGPHLQNLRSQAPMFRPDTTHLHPQHRRLLHQRQQQNRSQHRNLNGAGDRGSHRSSHQDHLRKDPYANLMLQREKDWVSKIQMMQLQSTDPYLDDFYYQNYFEKLEKLSAAEEIQGDGPKKERTKLITPQVAKLEHAYKPVQFEGSLGKLTVSSVNNPRKMIDAVVTSRSEDDETKEKQVRDKRRKTLVIIEKTYSLLLDVEDYERRYLLSLEEERPALMDDRKHKICSMYDNLRGKLPGQERPSDDHFVQIMCIRKGKRMVARILPFLSTEQAADILMTTARNLPFLIKKDAQDEVLPCLLSPFSLLLYHLPSVSITSLLRQLMNLPQSAATPALSNPHLTAVLQNKFGLSLLLILLSRGEDLQSSDPATESTQNNQWTEVMFMATRELLRIPQAALAKPISIPTNLVSLFSRYVDRQKLNLLETKLQLVQGIR [PATL1] | 0.255 | 49.2 | 48.5 | -0.0674 | -0.863 | 0.327
4 | MFSFEGDFKTRPKVSLGGASRKEEKASLLHRTQEERRKREEERRRLKNAIIIQSFIRGYRDRKQQYSIQRSAFDRCATLSQSGGAFPIANGPNLTLLVRQLLFFYKQNEDSKRLIWLYQNLIKHSSLFVKQLDGSERLTCLFQIKRLMSLCCRLLQNCNDDSLNVALPMRMLEVFSSENTYLPVLQDASYVVSVIEQILHYMIHNGYYRSLYLLINSKLPSSIEYSDLSRVPIAKILLENVLKPLHFTYNSCPEGARQQVFTAFTEEFLAAPFTDQIFHFIIPALADAQTVFPYEPFLNALLLIESRCSRKSGGAPWLFYFVLTVGENYLGALSEEGLLVYLRVLQTFLSQLPVSPASASCHDSASDSEEESEEADKPSSPEDGRLSVSYITEECLKKLDTKQQTNTLLNLVWRDSASEEVFTTMASVCHTLMVQHRMMVPKVRLLYSLAFNARFLRHLWFLISSMSTRMITGSMVPLLQVISRGSPMSFEDSSRIIPLFYLFSSLFSHSLISIHDNEFFGDPIEVVGQRQSSMMPFTLEELIMLSRCLRDACLGIIKLAYPETKPEVREEYITAFQSIGVTTSSEMQQCIQMEQKRWIQLFKVITNLVKMLKSRDTRRNFCPPNHWLSEQEDIKADKVTQLYVPASRHVWRFRRMGRIGPLQSTLDVGLESPPLSVSEERQLAVLTELPFVVPFEERVKIFQRLIYADKQEVQGDGPFLDGINVTIRRNYIYEDAYDKLSPENEPDLKKRIRVHLLNAHGLDEAGIDGGGIFREFLNELLKSGFNPNQGFFKTTNEGLLYPNPAAQMLVGDSFARHYYFLGRMLGKALYENMLVELPFAGFFLSKLLGTSADVDIHHLASLDPEVYKNLLFLKSYEDDVEELGLNFTVVNNDLGEAQVVELKFGGKDIPVTSANRIAYIHLVADYRLNRQIRQHCLAFRQGLANVVSLEWLRMFDQQEIQVLISGAQVPISLEDLKSFTNYSGGYSADHPVIKVFWRVVEGFTDEEKRKLLKFVTSCSRPPLLGFKELYPAFCIHNGGSDLERLPTASTCMNLLKLPEFYDETLLRSKLLYAIECAAGFELS [UBE3C] | -0.181 | 50.3 | 50.1 | -0.263 | 0.499 | 0.996
5 | MFSWVSKDARRKKEPELFQTVAEGLRQLYAQKLLPLEEHYRFHEFHSPALEDADFDNKPMVLLVGQYSTGKTTFIRHLIEQDFPGMRIGPEPTTDSFIAVMHGPTEGVVPGNALVVDPRRPFRKLNAFGNAFLNRFMCAQLPNPVLDSISIIDTPGILSGEKQRISRGYDFAAVLEWFAERVDRIILLFDAHKLDISDEFSEVIKALKNHEDKIRVVLNKADQIETQQLMRVYGALMWSLGKIINTPEVVRVYIGSFWSHPLLIPDNRKLFEAEEQDLFKDIQSLPRNAALRKLNDLIKRARLAKVHAYIISSLKKEMPNVFGKESKKKELVNNLGEIYQKIEREHQISPGDFPSLRKMQELLQTQDFSKFQALKPKLLDTVDDMLANDIARLMVMVRQEESLMPSQVVKGGAFDGTMNGPFGHGYGEGAGEGIDDVEWVVGKDKPTYDEIFYTLSPVNGKITGANAKKEMVKSKLPNTVLGKIWKLADVDKDGLLDDEEFALANHLIKVKLEGHELPADLPPHLVPPSKRRHE [EHD1] | 0.171 | 50.6 | 50.5 | -0.0648 | 2.25 | 2.22
6 | MFVELNNLLNTTPDRAEQGKLTLLCDAKTDGSFLVHHFLSFYLKANCKVCFVALIQSFSHYSIVGQKLGVSLTMARERGQLVFLEGLKSAVDVVFQAQKEPHPLQFLREANAGNLKPLFEFVREALKPVDSGEARWTYPVLLVDDLSVLLSLGMGAVAVLDFIHYCRATVCWELKGNMVVLVHDSGDAEDEENDILLNGLSHQSHLILRAEGLATGFCRDVHGQLRILWRRPSQPAVHRDQSFTYQYKIQDKSVSFFAKGMSPAVL [ELP6] | -0.082 | 55.1 | 54.4 | -0.245 | -0.431 | -1.3
7 | MFVPRSLKIKRNANDDGKSCVAKIIKPDPEDLQLDKSRDVPVDAVATEAATIDRHISESCPFPSPGGQLAEVHSVSPEQGAKDSHPSEEPVKSFSKTQRWAEPGEPICVVCGRYGEYICDKTDEDVCSLECKAKHLLQVKEKEEKSKLSNPQKADSEPESPLNASYVYKEHPFILNLQEDQIENLKQQLGILVQGQEVTRPIIDFEHCSLPEVLNHNLKKSGYEVPTPIQMQMIPVGLLGRDILASADTGSGKTAAFLLPVIMRALFESKTPSALILTPTRELAIQIERQAKELMSGLPRMKTVLLVGGLPLPPQLYRLQQHVKVIIATPGRLLDIIKQSSVELCGVKIVVVDEADTMLKMGFQQQVLDILENIPNDCQTILVSATIPTSIEQLASQLLHNPVRIITGEKNLPCANVRQIILWVEDPAKKKKLFEILNDKKLFKPPVLVFVDCKLGADLLSEAVQKITGLKSISIHSEKSQIERKNILKGLLEGDYEVVVSTGVLGRGLDLISVRLVVNFDMPSSMDEYVHQIGRVGRLGQNGTAITFINNNSKRLFWDIAKRVKPTGSILPPQLLNSPYLHDQKRKEQQKDKQTQNDLVTGANLMDIIRKHDKSNSQK [DDX59] | 0.419 | 50.8 | 50.3 | -0.18 | 1.04 | 1.76
8 | MGAFLDKPKTEKHNAHGAGNGLRYGLSSMQGWRVEMEDAHTAVVGIPHGLEDWSFFAVYDGHAGSRVANYCSTHLLEHITTNEDFRAAGKSGSALELSVENVKNGIRTGFLKIDEYMRNFSDLRNGMDRSGSTAVGVMISPKHIYFINCGDSRAVLYRNGQVCFSTQDHKPCNPREKERIQNAGGSVMIQRVNGSLAVSRALGDYDYKCVDGKGPTEQLVSPEPEVYEILRAEEDEFIILACDGIWDVMSNEELCEYVKSRLEVSDDLENVCNWVVDTCLHKGSRDNMSIVLVCFSNAPKVSDEAVKKDSELDKHLESRVEEIMEKSGEEGMPDLAHVMRILSAENIPNLPPGGGLAGKRNVIEAVYSRLNPHRESDGASDEAEESGSQGKLVEALRQMRINHRGNYRQLLEEMLTSYRLAKVEGEESPAEPAATATSSNSDAGNPVTMQESHTESESGLAELDSSNEDAGTKMSGEKI [PPM1B] | -0.164 | 52.9 | 52.6 | 0.0659 | 0.54 | -0.803
9 | MGCAEGKAVAAAAPTELQTKGKNGDGRRRSAKDHHPGKTLPENPAGFTSTATADSRALLQAYIDGHSVVIFSRSTCTRCTEVKKLFKSLCVPYFVLELDQTEDGRALEGTLSELAAETDLPVVFVKQRKIGGHGPTLKAYQEGRLQKLLKMNGPEDLPKSYDYDLIIIGGGSGGLAAAKEAAQYGKKVMVLDFVTPTPLGTRWGLGGTCVNVGCIPKKLMHQAALLGQALQDSRNYGWKVEETVKHDWDRMIEAVQNHIGSLNWGYRVALREKKVVYENAYGQFIGPHRIKATNNKGKEKIYSAERFLIATGERPRYLGIPGDKEYCISSDDLFSLPYCPGKTLVVGASYVALECAGFLAGIGLDVTVMVRSILLRGFDQDMANKIGEHMEEHGIKFIRQFVPIKVEQIEAGTPGRLRVVAQSTNSEEIIEGEYNTVMLAIGRDACTRKIGLETVGVKINEKTGKIPVTDEEQTNVPYIYAIGDILEDKVELTPVAIQAGRLLAQRLYAGSTVKCDYENVPTTVFTPLEYGACGLSEEKAVEKFGEENIEVYHSYFWPLEWTIPSRDNNKCYAKIICNTKDNERVVGFHVLGPNAGEVTQGFAAALKCGLTKKQLDSTIGIHPVCAEVFTTLSVTKRSGASILQAGCUG [TXNRD1] | 0.0191 | 52 | 51.9 | -0.101 | 1.37 | -1.27
10 | MGCAPSIHVSQSGVIYCRDSDESSSPRQTTSVSQGPAAPLPGLFVQTDAADAIPPSRASGPPSVARVRRARTELGSGSSAGSAAPAATTSRGRRRHCCSSAEAETQTCYTSVKQVSSAEVRIGPMRLTQDPIQVLLIFAKEDSQSDGFWWACDRAGYRCNIARTPESALECFLDKHHEIIVIDHRQTQNFDAEAVCRSIRATNPSEHTVILAVVSRVSDDHEEASVLPLLHAGFNRRFMENSSIIACYNELIQIEHGEVRSQFKLRACNSVFTALDHCHEAIEITSDDHVIQYVNPAFERMMGYHKGELLGKELADLPKSDKNRADLLDTINTCIKKGKEWQGVYYARRKSGDSIQQHVKITPVIGQGGKIRHFVSLKKLCCTTDNNKQIHKIHRDSGDNSQTEPHSFRYKNRRKESIDVKSISSRGSDAPSLQNRRYPSMARIHSMTIEAPITKVINIINAAQENSPVTVAEALDRVLEILRTTELYSPQLGTKDEDPHTSDLVGGLMTDGLRRLSGNEYVFTKNVHQSHSHLAMPITINDVPPCISQLLDNEESWDFNIFELEAITHKRPLVYLGLKVFSRFGVCEFLNCSETTLRAWFQVIEANYHSSNAYHNSTHAADVLHATAFFLGKERVKGSLDQLDEVAALIAATVHDVDHPGRTNSFLCNAGSELAVLYNDTAVLESHHTALAFQLTVKDTKCNIFKNIDRNHYRTLRQAIIDMVLATEMTKHFEHVNKFVNSINKPMAAEIEGSDCECNPAGKNFPENQILIKRMMIKCADVANPCRPLDLCIEWAGRISEEYFAQTDEEKRQGLPVVMPVFDRNTCSIPKSQISFIDYFITDMFDAWDAFAHLPALMQHLADNYKHWKTLDDLKCKSLRLPSDS [PDE8B] | -0.134 | 49 | 49.1 | -0.122 | 0.505 | 0.304

From the supplement of paper PMC5998384
